Reference: doi:10.1101/2022.09.29.510132 (bioRxiv, 2022)

T1: E6AP AZUL (UniProt Q05086 24-87)
T1 construct: AZUL domain of E6AP/UBE3A; Used unlabeled or 15N-labeled; source: expressed and purified as described previously (Buel et al., 2020)
T1 sequence: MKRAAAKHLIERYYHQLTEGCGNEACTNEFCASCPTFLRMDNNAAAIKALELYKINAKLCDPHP


Key:
UBQLN2 = target: T2, UBQLN2 (UniProt Q9UHD9 1-624); assay: recruitment to phase-separated droplets (confocal fluorescence microscopy, in vitro); 50 µM UBQLN2 construct with 25 µM AZUL-mEGFP or EGFP in 20 mM NaPO4, 200 mM NaCl, 2.5 µM ZnSO4 (pH 6.8) at 37 °C; settings: both partners purified
T2 construct: UBQLN2 full-length construct; Phase separates into droplets at 37 °C with 200 mM NaCl; also called UBQLN2 full-length; source: E. coli BL21 (DE3), purified (glutathione sepharose, PreScission cleavage, SEC); not shown: GST, N-terminal, cleaved

E6AP AZUL = target: T1, E6AP AZUL; assay: NMR titration; unlabeled UBQLN1 constructs added to 0.05 mM 15N-E6AP AZUL; 1H-15N HSQC; Buffer E (10 mM MOPS pH 6.5, 50 mM NaCl, 5 mM DTT, 10 μM zinc sulfate), 25 °C; settings: both partners purified

| Binder | binding result (UBQLN2) | binding result (E6AP AZUL) |
| --- | --- | --- |
| AZUL-mEGFP (domain or fragment, UniProt Q05086 24-87, looked up, E6AP isoform II residues 24-87 (AZUL); AZUL and mEGFP are separated by a TEV protease cut site; A206K is numbered relative to avGFP (A207K relative to EGFP); also called E6AP isoform II 24-87 with a C-terminal mEGFP; source: E. coli BL21 (DE3), purified (glutathione sepharose, PreScission cleavage, SEC); not shown: GST, N-terminal, cleaved; mEGFP (EGFP with A206K), C-terminal, kept) MKRAAAKHLIERYYHQLTEGCGNEACTNEFCASCPTFLRMDNNAAAIKALELYKINAKLCDPHP | binds | – |
| QNPEVRFQQQLEQLSAMGFLNREANLQALIATGGDINAAIERLLGSQPS (domain or fragment, UniProt Q9UMX0 541-589, looked up, The construct contains a tyrosine residue in the tag to enable quantitation at A280; source: E. coli BL21 (DE3), purified (glutathione sepharose, PreScission cleavage, SEC); not shown: GST, N-terminal, cleaved) [UBQLN1 UBA (541-589)] | – | binds |
